Measured values from paper PMC9482650, “Quantitative fragmentomics allow affinity mapping of interactomes” (Nature Communications, 2022).

What was measured:
Assay in all cases: holdup assay
Parameters in all cases: key: below the threshold = too weak to quantify, mostly under pKd 3.1 to 4
[1] = biological target: DLG4_3, P78352
[2] = biological target: MAST1, Q9Y2H9
[3] = biological target: T1, ARHGAP21, Q5T5U3
T1 sequence (Q5T5U3 45-169, limits assumed, looked up): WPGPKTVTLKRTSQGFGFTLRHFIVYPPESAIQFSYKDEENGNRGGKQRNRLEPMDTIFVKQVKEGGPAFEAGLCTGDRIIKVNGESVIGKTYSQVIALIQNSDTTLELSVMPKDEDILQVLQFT

[4] = biological target: T2, FRMPD1, Q5SYB0
T2 sequence (Q5SYB0 52-145, limits assumed, looked up): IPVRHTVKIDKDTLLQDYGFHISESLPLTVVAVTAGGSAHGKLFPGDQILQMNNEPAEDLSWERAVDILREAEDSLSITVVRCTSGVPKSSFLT

[5] = biological target: MAGI3_2, Q5TCQ9
Chain of MAGI3_2, Q5TCQ9 (Q5TCQ9 398-503): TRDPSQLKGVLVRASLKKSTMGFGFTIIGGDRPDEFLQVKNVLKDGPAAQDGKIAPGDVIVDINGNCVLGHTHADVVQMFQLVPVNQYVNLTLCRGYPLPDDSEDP

[6] = biological target: T3, PDZD2_2, O15018
T3 sequence (O15018 329-429, limits assumed, looked up): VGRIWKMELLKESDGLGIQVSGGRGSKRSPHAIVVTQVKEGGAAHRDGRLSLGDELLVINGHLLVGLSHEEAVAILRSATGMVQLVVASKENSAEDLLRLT

[7] = biological target: GRIP2_3, Q9C0E4
Chain of GRIP2_3, Q9C0E4 (Q9C0E4 238-339): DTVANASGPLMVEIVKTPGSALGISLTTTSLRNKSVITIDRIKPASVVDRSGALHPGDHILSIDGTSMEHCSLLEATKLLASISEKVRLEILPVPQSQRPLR

[8] = biological target: T4, ARHGEF11, O15085
T4 sequence (O15085 42-136, limits assumed, looked up): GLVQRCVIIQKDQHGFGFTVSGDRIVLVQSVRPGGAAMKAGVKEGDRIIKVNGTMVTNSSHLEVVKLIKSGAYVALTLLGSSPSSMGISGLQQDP

[9] = biological target: LAP2, Q96RT1
Chain of LAP2, Q96RT1 (Q96RT1 other isoform, or with tags, fused parts or gaps): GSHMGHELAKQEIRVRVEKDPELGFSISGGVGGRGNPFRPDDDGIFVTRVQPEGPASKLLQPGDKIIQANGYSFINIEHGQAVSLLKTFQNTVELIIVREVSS

[10] = biological target: DLG2_3, Q15700
[11] = biological target: NOS1, P29475
Chain of NOS1, P29475 (P29475 9-101): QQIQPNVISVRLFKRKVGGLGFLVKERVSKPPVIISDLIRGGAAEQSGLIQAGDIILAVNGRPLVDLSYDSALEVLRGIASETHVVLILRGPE

[12] = biological target: NHERF2_2, Q15599
Chain of NHERF2_2, Q15599 (Q15599 142-238): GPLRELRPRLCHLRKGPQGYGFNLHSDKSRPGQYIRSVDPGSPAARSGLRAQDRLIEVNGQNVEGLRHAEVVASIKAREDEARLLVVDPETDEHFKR

[13] = biological target: MAGI2_5, Q86UL8
Chain of MAGI2_5, Q86UL8 (Q86UL8 915-1017): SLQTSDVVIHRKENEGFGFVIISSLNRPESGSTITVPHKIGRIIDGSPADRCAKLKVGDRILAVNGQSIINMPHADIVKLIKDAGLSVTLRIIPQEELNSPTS

[14] = biological target: NHERF4_4, Q86UT5
Chain of NHERF4_4, Q86UT5 (Q86UT5 464-550): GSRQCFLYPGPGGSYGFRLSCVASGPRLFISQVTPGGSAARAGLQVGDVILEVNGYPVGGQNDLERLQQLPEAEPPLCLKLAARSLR

[15] = biological target: Inadl_1, Q8NI35
Chain of Inadl_1, Q8NI35 (Q8NI35 113-229): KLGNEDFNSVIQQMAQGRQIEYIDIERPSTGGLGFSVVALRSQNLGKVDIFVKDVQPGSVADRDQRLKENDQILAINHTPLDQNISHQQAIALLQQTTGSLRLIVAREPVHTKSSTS

[16] = biological target: T5, APBA1_2, Q02410
T5 sequence (Q02410 742-832, limits assumed, looked up): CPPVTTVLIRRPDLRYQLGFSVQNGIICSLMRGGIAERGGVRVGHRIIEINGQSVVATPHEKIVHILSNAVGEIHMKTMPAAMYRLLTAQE

[17] = biological target: FRMPD3, Q5JV73
Chain of FRMPD3, Q5JV73 (Q5JV73 12-100): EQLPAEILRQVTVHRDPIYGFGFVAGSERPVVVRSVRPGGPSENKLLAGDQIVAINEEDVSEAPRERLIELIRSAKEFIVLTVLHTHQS

[18] = biological target: SCRIB_3, Q14160
Chain of SCRIB_3, Q14160 (Q14160 999-1103): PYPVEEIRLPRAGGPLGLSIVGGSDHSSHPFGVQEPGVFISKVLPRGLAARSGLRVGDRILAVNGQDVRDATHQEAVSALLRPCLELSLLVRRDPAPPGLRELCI

[19] = biological target: GORASP2, Q9H8Y8
[20] = biological target: T6, TX1BP3, O14907
T6 sequence (O14907 10-122, limits assumed, looked up): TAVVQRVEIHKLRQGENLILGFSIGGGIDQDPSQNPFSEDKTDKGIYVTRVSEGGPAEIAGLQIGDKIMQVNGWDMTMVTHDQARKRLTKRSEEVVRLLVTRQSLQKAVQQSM

[21] = biological target: T7, DFNB31_3, Q9P202
T7 sequence (Q9P202 811-907, limits assumed, looked up): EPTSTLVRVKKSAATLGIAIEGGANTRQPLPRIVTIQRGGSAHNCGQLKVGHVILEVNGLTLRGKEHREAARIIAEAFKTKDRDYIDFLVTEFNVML

[22] = biological target: T8, LIN7C, Q9NUP9
T8 sequence (Q9NUP9 88-185, limits assumed, looked up): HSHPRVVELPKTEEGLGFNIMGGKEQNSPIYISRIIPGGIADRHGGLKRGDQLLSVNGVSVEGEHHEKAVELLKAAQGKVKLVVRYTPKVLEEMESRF

[23] = biological target: T9, SNTG2, Q9NY99
T9 sequence (Q9NY99 68-166, limits assumed, looked up): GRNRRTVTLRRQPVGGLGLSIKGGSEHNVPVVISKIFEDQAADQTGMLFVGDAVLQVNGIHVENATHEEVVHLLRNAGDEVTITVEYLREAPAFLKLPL

[24] = biological target: GRID2IP_2, A4D2P6
Chain of GRID2IP_2, A4D2P6 (A4D2P6 272-370): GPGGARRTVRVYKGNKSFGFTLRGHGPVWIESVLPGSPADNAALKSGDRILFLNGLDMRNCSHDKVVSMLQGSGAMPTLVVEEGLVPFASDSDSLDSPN

[25] = biological target: T10, TJP3_3, O95049
T10 sequence (O95049 375-456, limits assumed, looked up): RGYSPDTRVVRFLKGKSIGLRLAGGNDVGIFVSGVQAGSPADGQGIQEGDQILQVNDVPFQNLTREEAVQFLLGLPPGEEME

[26] = biological target: T11, APBA1_1, Q02410
T11 sequence (Q02410 651-752, limits assumed, looked up): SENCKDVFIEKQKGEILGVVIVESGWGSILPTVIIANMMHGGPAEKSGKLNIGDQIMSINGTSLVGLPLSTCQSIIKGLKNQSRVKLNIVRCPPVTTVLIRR

[27] = biological target: SNX27, Q96L92
[28] = plain residues with an end cap or a label only (N-terminal biotin on a linker: ahx)
[29] = plain residues with an end cap or a label only (N-terminal biotin on a linker: ttds)
[30] = plain residues with an end cap or a label only (N-terminal biotin on a linker: ado-ado)

Measured: pKd

Chain of DLG4_3, P78352 (P78352 306-403): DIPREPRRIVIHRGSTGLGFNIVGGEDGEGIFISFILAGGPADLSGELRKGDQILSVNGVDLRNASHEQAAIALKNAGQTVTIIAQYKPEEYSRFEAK
Chain of MAST1, Q9Y2H9 (Q9Y2H9 962-1065): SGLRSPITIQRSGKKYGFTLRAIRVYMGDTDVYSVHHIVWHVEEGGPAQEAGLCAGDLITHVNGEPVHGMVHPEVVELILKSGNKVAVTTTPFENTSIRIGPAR

B1: CNTNAP4, Q9C0A0 (peptide)
chain: VNENQKEYFF
4.66: [17]; [28]
4.3: [2]; [28]
4.1: [14]; [28]
3.91: [3]; [28]
4.47: [16]; [28]
3.54: [13]; [28]
3.7: [18]; [28]
3.72: [15]; [28]
below the threshold: [1]; [28] | [4]; [28] | [5]; [28] | [6]; [28] | [7]; [28] | [8]; [28] | [9]; [28] | [10]; [28] | [12]; [28] | [19]; [28] | [20]; [28] | [21]; [28] | [22]; [28] | [23]; [28] | [24]; [28] | [25]; [28] | [26]; [28]
3.83: [11]; [28] | [27]; [28]

B2: RALBP1, Q15311 (peptide)
chain: PSRDRKETSI
3.69: [24]; [29]
4.32: [23]; [29]
below the threshold: [3]; [29] | [4]; [29] | [7]; [29] | [8]; [29] | [12]; [29] | [13]; [29] | [14]; [29] | [15]; [29] | [17]; [29] | [19]; [29] | [21]; [29] | [25]; [29] | [26]; [29]
4.97: [18]; [29]
3.37: [9]; [29]
4.64: [10]; [29]
4.76: [5]; [29]
3.75: [6]; [29]
3.32: [16]; [29]
3.52: [11]; [29]
4.23: [20]; [29] | [27]; [29]
4.56: [2]; [29]
4.87: [1]; [29]
3.9: [22]; [29]

B3: SLC1A3, P43003 (peptide)
chain: EKPIDSETKM
5.18: [27]; [30]
below the threshold: [1]; [30] | [3]; [30] | [4]; [30] | [5]; [30] | [6]; [30] | [7]; [30] | [8]; [30] | [9]; [30] | [10]; [30] | [11]; [30] | [13]; [30] | [14]; [30] | [15]; [30] | [16]; [30] | [17]; [30] | [19]; [30] | [20]; [30] | [21]; [30] | [22]; [30] | [23]; [30] | [24]; [30] | [25]; [30] | [26]; [30]
3.58: [18]; [30]
4.67: [2]; [30]
4.47: [12]; [30]

B4: FMNL3, Q8IVF7 (peptide)
chain: DAAHHDESNC
3.62: [10]; [30]
4.13: [6]; [30]
4.2: [27]; [30]
3.99: [21]; [30]
below the threshold: [1]; [30] | [2]; [30] | [3]; [30] | [4]; [30] | [5]; [30] | [7]; [30] | [8]; [30] | [9]; [30] | [11]; [30] | [12]; [30] | [13]; [30] | [14]; [30] | [15]; [30] | [16]; [30] | [17]; [30] | [18]; [30] | [19]; [30] | [20]; [30] | [22]; [30] | [23]; [30] | [24]; [30] | [25]; [30] | [26]; [30]

B5: CBY2, Q8NA61 (peptide)
chain: SQDPKKPSRV
3.76: [11]; [30]
4.44: [5]; [30]
3.67: [14]; [30] | [27]; [30]
4.04: [3]; [30]
below the threshold: [1]; [30] | [2]; [30] | [4]; [30] | [6]; [30] | [7]; [30] | [8]; [30] | [9]; [30] | [10]; [30] | [12]; [30] | [13]; [30] | [15]; [30] | [17]; [30] | [18]; [30] | [19]; [30] | [20]; [30] | [21]; [30] | [22]; [30] | [23]; [30] | [24]; [30] | [25]; [30] | [26]; [30]
3.97: [16]; [30]
